Reference: paper PMC5389673 (Nucleic Acids Research, 2016)

Biological target: the molecule itself
Assay: crystal structure

B1: VapB1 antitoxin from Caulobacter crescentus CB15, full length, seleno-methionine substituted (natural protein, UniProt Q9AC34 1-79, looked up)
chain: MARATGKTFRSGNSEAVRLPRDLAFGADVELTLIRSGDVLTIYPSKGSIADLVATLNQMPRPDSVEIRDEDLFPERPGL
modifications: seleno-methionine in place of methionine
stoichiometry N: 2

B2: VapC1 toxin from Caulobacter crescentus CB15, full length, seleno-methionine substituted (natural protein)
chain: MAYVLDTNVAIHLRDGDPEVTTRVTALNGAILLSIISRVELEGGVYREAAQAGLRRSRLDVMLKVLPVLDFDGAAADEYRRIVESAGYSRRKVVDRMIAAQALAHRATFVTFNADDFRDIPGLSLLAW
modifications: seleno-methionine in place of methionine
stoichiometry N: 2
